Experimental data: US20230103631A1, “PEPTIDES AS SELECTIVE GIP RECEPTOR AGONISTS” (Sanofi, priority 2020, published 2023)
*1 amine or outer side, *2 acyl side, *3 side chain or, on linkers, in order; H or OH if unused. Where no end group is shown, it is not given here. Side-chain parts run from the residue outwards. [ ]: non-standard residue; d: D form. The star is where a group is joined. C20 diacid = O=C(O)CCCCCCCCCCCCCCCCCCC(=O)*; C18 diacid = O=C(O)CCCCCCCCCCCCCCCCC(=O)*; γGlu = O=C(O)[C@H](CCC(=O)[*:2])N[*:1]; NMeY = CN[C@@H](Cc1ccc(O)cc1)C(=O)O; AEEA = NCCOCCOCC(=O)O; Aib = CC(C)(N)C(=O)O

Columns and labels:
[1] = target: T1, human GIP receptor (human, UniProt P48546 22-466); assay: cell-based or functional assay
T1 sequence (looked up): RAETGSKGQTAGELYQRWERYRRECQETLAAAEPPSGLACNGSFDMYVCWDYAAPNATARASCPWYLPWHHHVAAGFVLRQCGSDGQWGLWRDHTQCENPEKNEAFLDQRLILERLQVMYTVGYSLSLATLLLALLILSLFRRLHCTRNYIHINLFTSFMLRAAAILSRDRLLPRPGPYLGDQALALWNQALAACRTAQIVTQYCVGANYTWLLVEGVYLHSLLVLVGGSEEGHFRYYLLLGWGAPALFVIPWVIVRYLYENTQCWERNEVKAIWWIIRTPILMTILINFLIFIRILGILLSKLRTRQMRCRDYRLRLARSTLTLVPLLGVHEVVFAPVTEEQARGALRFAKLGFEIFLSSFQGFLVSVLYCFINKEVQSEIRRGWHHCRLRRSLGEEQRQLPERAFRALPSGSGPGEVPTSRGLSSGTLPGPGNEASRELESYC

[2] = target: T2, human GLP-1 receptor (human, UniProt P43220 24-463); assay: cell-based or functional assay
[3] = target: T1, human GIP receptor; assay: cell-based or functional assay; remark: listed apart in the source
[4] = target: T2, human GLP-1 receptor; assay: displacement of [125I]GLP-1 from hGLP-1R HEK-293 membranes, SPA

B1: SEQ ID NO: 7 (peptide)
peptide: Y[Aib]EGTFISDLSI[Aib]K([AEEA-AEEA-γGlu-C20 diacid])DRIHQ[Aib]EFIEWLLAQGPSSGAPPPS-NH2
modifications: N-terminus assumed
SMILES: CC[C@H](C)[C@H](NC(=O)[C@H](CCCNC(=N)N)NC(=O)[C@H](CC(=O)O)NC(=O)[C@H](CCCCNC(=O)COCCOCCNC(=O)COCCOCCNC(=O)CC[C@H](NC(=O)CCCCCCCCCCCCCCCCCCC(=O)O)C(=O)O)NC(=O)C(C)(C)NC(=O)[C@@H](NC(=O)[C@H](CO)NC(=O)[C@H](CC(C)C)NC(=O)[C@H](CC(=O)O)NC(=O)[C@H](CO)NC(=O)[C@@H](NC(=O)[C@H](Cc1ccccc1)NC(=O)[C@@H](NC(=O)CNC(=O)[C@H](CCC(=O)O)NC(=O)C(C)(C)NC(=O)[C@@H](N)Cc1ccc(O)cc1)[C@@H](C)O)[C@@H](C)CC)[C@@H](C)CC)C(=O)N[C@@H](Cc1c[nH]cn1)C(=O)N[C@@H](CCC(N)=O)C(=O)NC(C)(C)C(=O)N[C@@H](CCC(=O)O)C(=O)N[C@@H](Cc1ccccc1)C(=O)N[C@H](C(=O)N[C@@H](CCC(=O)O)C(=O)N[C@@H](Cc1c[nH]c2ccccc12)C(=O)N[C@@H](CC(C)C)C(=O)N[C@@H](CC(C)C)C(=O)N[C@@H](C)C(=O)N[C@@H](CCC(N)=O)C(=O)NCC(=O)N1CCC[C@H]1C(=O)N[C@@H](CO)C(=O)N[C@@H](CO)C(=O)NCC(=O)N[C@@H](C)C(=O)N1CCC[C@H]1C(=O)N1CCC[C@H]1C(=O)N1CCC[C@H]1C(=O)N[C@@H](CO)C(N)=O)[C@@H](C)CC
notes: Exendin-4 derived synthetic lipidated peptide of formula I
For B1, which “EC50 hGIPR 0% HSA, cAMP in HEK-293 cells” value [1] is on record?
The value was 0.00017 nM.

What about the “EC50 hGIPR 0.1% HSA, cAMP in HEK-293 cells” value [1] of the same binder?
The value was 0.00286 nM.

And the “EC50 hGLP-1R 0% HSA, cAMP in HEK-293 cells” value [2]?
Its value is greater than 10 nM.

And the “hGIPR EC50, cAMP in human adipocytes” value [3]?
The value was 0.3 nM.

What about the “hGIPR Emax, cAMP in human adipocytes” value [3] of the same binder?
Its value is 121%.

And the IC50 [4]?
Its IC50 is 105 nM.

B2: SEQ ID NO: 10 (peptide)
peptide: Y[Aib]EGTFISDLSI[Aib]K([AEEA-AEEA-γGlu-C20 diacid])DRIHQEEFIEWLLAQGPSSGAPPPS-NH2
modifications: N-terminus assumed
SMILES: CC[C@H](C)[C@H](NC(=O)[C@H](Cc1ccccc1)NC(=O)[C@H](CCC(=O)O)NC(=O)[C@H](CCC(=O)O)NC(=O)[C@H](CCC(N)=O)NC(=O)[C@H](Cc1c[nH]cn1)NC(=O)[C@@H](NC(=O)[C@H](CCCNC(=N)N)NC(=O)[C@H](CC(=O)O)NC(=O)[C@H](CCCCNC(=O)COCCOCCNC(=O)COCCOCCNC(=O)CC[C@H](NC(=O)CCCCCCCCCCCCCCCCCCC(=O)O)C(=O)O)NC(=O)C(C)(C)NC(=O)[C@@H](NC(=O)[C@H](CO)NC(=O)[C@H](CC(C)C)NC(=O)[C@H](CC(=O)O)NC(=O)[C@H](CO)NC(=O)[C@@H](NC(=O)[C@H](Cc1ccccc1)NC(=O)[C@@H](NC(=O)CNC(=O)[C@H](CCC(=O)O)NC(=O)C(C)(C)NC(=O)[C@@H](N)Cc1ccc(O)cc1)[C@@H](C)O)[C@@H](C)CC)[C@@H](C)CC)[C@@H](C)CC)C(=O)N[C@@H](CCC(=O)O)C(=O)N[C@@H](Cc1c[nH]c2ccccc12)C(=O)N[C@@H](CC(C)C)C(=O)N[C@@H](CC(C)C)C(=O)N[C@@H](C)C(=O)N[C@@H](CCC(N)=O)C(=O)NCC(=O)N1CCC[C@H]1C(=O)N[C@@H](CO)C(=O)N[C@@H](CO)C(=O)NCC(=O)N[C@@H](C)C(=O)N1CCC[C@H]1C(=O)N1CCC[C@H]1C(=O)N1CCC[C@H]1C(=O)N[C@@H](CO)C(N)=O
notes: as for B1
Which results are given for B2?
EC50 hGIPR 0% HSA, cAMP in HEK-293 cells [1]: 0.00025 nM; EC50 hGIPR 0.1% HSA, cAMP in HEK-293 cells [1]: 0.00537 nM; EC50 hGLP-1R 0% HSA, cAMP in HEK-293 cells [2]: > 10 nM; hGIPR EC50, cAMP in human adipocytes [3]: 0.4 nM; hGIPR Emax, cAMP in human adipocytes [3]: 127%; IC50 [4]: 223 nM

B3: SEQ ID NO: 8 (peptide)
peptide: [NMeY][Aib]EGTFISDLSI[Aib]K([AEEA-AEEA-γGlu-C18 diacid])DRIHQ[Aib]EFIEWLLAQGPSSGAPPPS-NH2
modifications: N-terminus assumed
SMILES: CC[C@H](C)[C@H](NC(=O)[C@H](CCCNC(=N)N)NC(=O)[C@H](CC(=O)O)NC(=O)[C@H](CCCCNC(=O)COCCOCCNC(=O)COCCOCCNC(=O)CC[C@H](NC(=O)CCCCCCCCCCCCCCCCC(=O)O)C(=O)O)NC(=O)C(C)(C)NC(=O)[C@@H](NC(=O)[C@H](CO)NC(=O)[C@H](CC(C)C)NC(=O)[C@H](CC(=O)O)NC(=O)[C@H](CO)NC(=O)[C@@H](NC(=O)[C@H](Cc1ccccc1)NC(=O)[C@@H](NC(=O)CNC(=O)[C@H](CCC(=O)O)NC(=O)C(C)(C)NC(=O)[C@H](Cc1ccc(O)cc1)NC)[C@@H](C)O)[C@@H](C)CC)[C@@H](C)CC)C(=O)N[C@@H](Cc1c[nH]cn1)C(=O)N[C@@H](CCC(N)=O)C(=O)NC(C)(C)C(=O)N[C@@H](CCC(=O)O)C(=O)N[C@@H](Cc1ccccc1)C(=O)N[C@H](C(=O)N[C@@H](CCC(=O)O)C(=O)N[C@@H](Cc1c[nH]c2ccccc12)C(=O)N[C@@H](CC(C)C)C(=O)N[C@@H](CC(C)C)C(=O)N[C@@H](C)C(=O)N[C@@H](CCC(N)=O)C(=O)NCC(=O)N1CCC[C@H]1C(=O)N[C@@H](CO)C(=O)N[C@@H](CO)C(=O)NCC(=O)N[C@@H](C)C(=O)N1CCC[C@H]1C(=O)N1CCC[C@H]1C(=O)N1CCC[C@H]1C(=O)N[C@@H](CO)C(N)=O)[C@@H](C)CC
notes: as for B1
B3 was tested. Which “EC50 hGIPR 0% HSA, cAMP in HEK-293 cells” value [1] did it give?
The value was 0.00019 nM.

What about the “EC50 hGIPR 0.1% HSA, cAMP in HEK-293 cells” value [1] of the same binder?
The value was 0.00137 nM.

What about the “EC50 hGLP-1R 0% HSA, cAMP in HEK-293 cells” value [2] of the same binder?
Its value is greater than 10 nM.

And the “hGIPR EC50, cAMP in human adipocytes” value [3]?
Its value is 0.5 nM.

What about the “hGIPR Emax, cAMP in human adipocytes” value [3] of the same binder?
Its value is 116%.

And the IC50 [4]?
Its IC50 is 186 nM.

B4: SEQ ID NO: 4 (peptide)
peptide: Y[Aib]EGTFISDLSI[Aib]K([AEEA-AEEA-γGlu-C18 diacid])DRIHQ[Aib]EFIEWLLAQGPSSGAPPPS-NH2
modifications: N-terminus assumed
SMILES: CC[C@H](C)[C@H](NC(=O)[C@H](CCCNC(=N)N)NC(=O)[C@H](CC(=O)O)NC(=O)[C@H](CCCCNC(=O)COCCOCCNC(=O)COCCOCCNC(=O)CC[C@H](NC(=O)CCCCCCCCCCCCCCCCC(=O)O)C(=O)O)NC(=O)C(C)(C)NC(=O)[C@@H](NC(=O)[C@H](CO)NC(=O)[C@H](CC(C)C)NC(=O)[C@H](CC(=O)O)NC(=O)[C@H](CO)NC(=O)[C@@H](NC(=O)[C@H](Cc1ccccc1)NC(=O)[C@@H](NC(=O)CNC(=O)[C@H](CCC(=O)O)NC(=O)C(C)(C)NC(=O)[C@@H](N)Cc1ccc(O)cc1)[C@@H](C)O)[C@@H](C)CC)[C@@H](C)CC)C(=O)N[C@@H](Cc1c[nH]cn1)C(=O)N[C@@H](CCC(N)=O)C(=O)NC(C)(C)C(=O)N[C@@H](CCC(=O)O)C(=O)N[C@@H](Cc1ccccc1)C(=O)N[C@H](C(=O)N[C@@H](CCC(=O)O)C(=O)N[C@@H](Cc1c[nH]c2ccccc12)C(=O)N[C@@H](CC(C)C)C(=O)N[C@@H](CC(C)C)C(=O)N[C@@H](C)C(=O)N[C@@H](CCC(N)=O)C(=O)NCC(=O)N1CCC[C@H]1C(=O)N[C@@H](CO)C(=O)N[C@@H](CO)C(=O)NCC(=O)N[C@@H](C)C(=O)N1CCC[C@H]1C(=O)N1CCC[C@H]1C(=O)N1CCC[C@H]1C(=O)N[C@@H](CO)C(N)=O)[C@@H](C)CC
notes: as for B1
What does the source list for B4?
EC50 hGIPR 0% HSA, cAMP in HEK-293 cells [1]: 0.00012 nM; EC50 hGIPR 0.1% HSA, cAMP in HEK-293 cells [1]: 0.00088 nM; EC50 hGLP-1R 0% HSA, cAMP in HEK-293 cells [2]: > 10 nM; hGIPR EC50, cAMP in human adipocytes [3]: 0.5 nM; hGIPR Emax, cAMP in human adipocytes [3]: 116%; IC50 [4]: 144 nM
